According to US7087405 (dated 2006):

T1: integrin alphavbeta3 (human, UniProt P06756)
T1 chain 1: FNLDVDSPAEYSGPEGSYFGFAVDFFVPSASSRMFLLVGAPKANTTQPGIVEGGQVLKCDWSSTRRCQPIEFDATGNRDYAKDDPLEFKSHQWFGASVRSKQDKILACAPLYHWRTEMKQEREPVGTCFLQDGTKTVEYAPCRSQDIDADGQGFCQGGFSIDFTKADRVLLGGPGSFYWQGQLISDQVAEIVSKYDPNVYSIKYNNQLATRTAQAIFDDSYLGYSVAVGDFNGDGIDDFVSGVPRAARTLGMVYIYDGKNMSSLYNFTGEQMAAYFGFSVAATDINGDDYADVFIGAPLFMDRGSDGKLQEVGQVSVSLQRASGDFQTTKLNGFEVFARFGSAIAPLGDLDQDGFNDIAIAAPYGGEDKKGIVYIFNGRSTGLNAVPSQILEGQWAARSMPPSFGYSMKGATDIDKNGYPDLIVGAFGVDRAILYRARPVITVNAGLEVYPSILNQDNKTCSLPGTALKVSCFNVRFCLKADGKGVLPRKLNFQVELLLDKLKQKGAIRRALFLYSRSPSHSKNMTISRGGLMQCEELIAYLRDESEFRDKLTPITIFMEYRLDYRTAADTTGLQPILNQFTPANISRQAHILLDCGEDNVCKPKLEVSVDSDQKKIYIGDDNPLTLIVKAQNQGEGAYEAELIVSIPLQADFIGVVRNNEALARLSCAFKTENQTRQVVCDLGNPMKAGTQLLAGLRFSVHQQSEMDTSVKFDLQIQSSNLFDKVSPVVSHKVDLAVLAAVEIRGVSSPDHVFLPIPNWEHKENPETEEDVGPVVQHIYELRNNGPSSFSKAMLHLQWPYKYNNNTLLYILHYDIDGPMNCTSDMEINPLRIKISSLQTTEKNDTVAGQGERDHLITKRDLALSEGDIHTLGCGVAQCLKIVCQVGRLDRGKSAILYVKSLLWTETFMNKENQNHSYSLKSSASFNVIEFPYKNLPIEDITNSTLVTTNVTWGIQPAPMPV
T1 chain 2: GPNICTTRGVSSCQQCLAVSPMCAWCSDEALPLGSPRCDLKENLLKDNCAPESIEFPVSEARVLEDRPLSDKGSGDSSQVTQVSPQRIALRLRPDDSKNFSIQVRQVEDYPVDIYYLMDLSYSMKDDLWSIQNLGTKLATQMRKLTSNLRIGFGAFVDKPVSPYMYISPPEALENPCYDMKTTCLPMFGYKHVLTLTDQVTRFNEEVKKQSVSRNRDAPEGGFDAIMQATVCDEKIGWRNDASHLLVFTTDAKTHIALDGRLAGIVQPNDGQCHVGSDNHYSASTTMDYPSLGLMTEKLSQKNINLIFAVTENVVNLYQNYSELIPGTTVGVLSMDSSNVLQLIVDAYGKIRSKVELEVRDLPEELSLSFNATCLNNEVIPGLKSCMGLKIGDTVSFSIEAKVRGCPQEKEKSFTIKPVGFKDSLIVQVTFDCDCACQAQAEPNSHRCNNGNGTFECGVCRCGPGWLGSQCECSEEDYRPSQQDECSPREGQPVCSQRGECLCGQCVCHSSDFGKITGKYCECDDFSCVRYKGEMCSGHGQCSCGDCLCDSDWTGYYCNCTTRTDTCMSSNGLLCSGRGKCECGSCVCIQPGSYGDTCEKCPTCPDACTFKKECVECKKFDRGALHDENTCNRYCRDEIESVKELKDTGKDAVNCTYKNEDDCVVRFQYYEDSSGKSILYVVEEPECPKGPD

T2: integrin alphavbeta5 (human, UniProt P06756)
T2 chain 1: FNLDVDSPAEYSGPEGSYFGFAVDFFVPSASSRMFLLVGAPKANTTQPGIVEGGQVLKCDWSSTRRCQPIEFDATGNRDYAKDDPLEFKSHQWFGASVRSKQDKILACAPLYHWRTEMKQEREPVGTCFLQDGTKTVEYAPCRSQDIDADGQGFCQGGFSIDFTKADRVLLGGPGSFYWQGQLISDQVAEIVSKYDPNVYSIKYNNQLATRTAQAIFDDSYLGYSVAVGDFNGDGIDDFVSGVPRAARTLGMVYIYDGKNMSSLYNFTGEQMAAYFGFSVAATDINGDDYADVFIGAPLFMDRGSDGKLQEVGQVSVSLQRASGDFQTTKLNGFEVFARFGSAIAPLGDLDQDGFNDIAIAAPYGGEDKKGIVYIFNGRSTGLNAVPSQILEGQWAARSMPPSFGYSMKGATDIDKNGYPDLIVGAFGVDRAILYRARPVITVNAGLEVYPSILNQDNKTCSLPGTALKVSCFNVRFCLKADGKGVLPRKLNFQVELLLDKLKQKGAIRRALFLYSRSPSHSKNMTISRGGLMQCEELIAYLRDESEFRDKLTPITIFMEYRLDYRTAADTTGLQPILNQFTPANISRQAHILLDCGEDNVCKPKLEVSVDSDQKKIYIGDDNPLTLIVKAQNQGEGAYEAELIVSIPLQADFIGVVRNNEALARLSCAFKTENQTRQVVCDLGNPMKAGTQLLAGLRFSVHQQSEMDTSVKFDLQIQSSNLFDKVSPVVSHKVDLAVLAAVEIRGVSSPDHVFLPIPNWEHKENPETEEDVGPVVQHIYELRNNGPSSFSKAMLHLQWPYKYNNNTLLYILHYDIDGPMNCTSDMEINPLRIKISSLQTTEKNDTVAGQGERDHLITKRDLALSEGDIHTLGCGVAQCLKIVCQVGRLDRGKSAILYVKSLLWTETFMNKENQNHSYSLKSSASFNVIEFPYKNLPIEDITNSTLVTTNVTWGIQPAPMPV
T2 chain 2: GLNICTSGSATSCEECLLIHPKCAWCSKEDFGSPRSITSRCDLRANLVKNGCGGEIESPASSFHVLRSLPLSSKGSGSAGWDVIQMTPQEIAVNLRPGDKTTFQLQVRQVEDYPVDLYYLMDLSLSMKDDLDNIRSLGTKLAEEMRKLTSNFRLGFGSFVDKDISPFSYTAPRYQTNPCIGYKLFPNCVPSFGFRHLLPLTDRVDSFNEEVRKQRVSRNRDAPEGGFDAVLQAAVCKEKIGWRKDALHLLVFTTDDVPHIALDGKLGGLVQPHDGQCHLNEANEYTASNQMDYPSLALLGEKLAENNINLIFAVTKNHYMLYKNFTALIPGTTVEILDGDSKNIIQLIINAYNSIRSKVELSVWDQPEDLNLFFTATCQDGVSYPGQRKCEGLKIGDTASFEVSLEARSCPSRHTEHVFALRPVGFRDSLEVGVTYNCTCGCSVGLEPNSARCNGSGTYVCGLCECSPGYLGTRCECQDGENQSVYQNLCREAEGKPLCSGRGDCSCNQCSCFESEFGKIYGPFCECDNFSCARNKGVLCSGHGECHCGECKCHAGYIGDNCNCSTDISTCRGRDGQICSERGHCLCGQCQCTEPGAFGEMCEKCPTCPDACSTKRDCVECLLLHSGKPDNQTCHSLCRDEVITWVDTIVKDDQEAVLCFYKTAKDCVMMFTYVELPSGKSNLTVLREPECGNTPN


What was measured:
integrin alphavbeta3 [1] = biological target: T1, integrin alphavbeta3; assay: SPR, mAb captured on Protein A
integrin alphavbeta5 = biological target: T2, integrin alphavbeta5; assay: SPR, receptor immobilized, bivalent
integrin alphavbeta3 [2] = biological target: T1, integrin alphavbeta3; assay: SPR, receptor immobilized, bivalent

| Kd (integrin alphavbeta3 [1]) [nM] | Kd (integrin alphavbeta5) [nM] | Kd (integrin alphavbeta3 [2]) [nM] | Binder |
| --- | --- | --- | --- |
| 8.2 | – | – | B9HL1G1 (antibody) chain 1: QVQLVQSGAEVKKPGASVKVSCKASGYTFSSYWIEWVKQAPGQGLEWIGEILPRSGNTNYNEKFKGKATFTADTSTSTAYMELSSLRSEDTAVYYCSSRGVRGSMDYWGQGTLVTVSS chain 2: DIQMTQSPSSLSASVGDRVTITCRSSQDISNFLNWYQQKPGKAPKLLIYYTSTLHSGVPSRFSGSGSGTDYTLTISSLQPEDFATYYCQQGNTASLDVRWRY |
| 6.9 | – | – | B9HH1G1/HL3K (antibody, V domains shown) VH: QVQLVQSGAEVKKPGASVKVSCKASGYTFSSYWIEWVKQAPGQGLEWIGEILPRSGNTNYNEKFKGKATFTADTSTSTAYMELSSLRSEDTAVYYCSSRGVRGSMDYWGQGTLVTVSS VL: DIQMTQSPSSLSASVGDRVTITCRSSQDISNFLNWYQQKPGKAPKLLIYYTSTLHSGVPSRFSGSGSGTDYTLTISSLQPEDFATYYCQQGNTLPWTFGGGTNVE |
| 5.4 | – | – | B9HL1G4 (antibody) chain 1: QVQLVQSGAEVKKPGASVKVSCKASGYTFSSYWIEWVKQAPGQGLEWIGEILPRSGNTNYNEKFKGKATFTADTSTSTAYMELSSLRSEDTAVYYCSSRGVRGSMDYWGQGTLVTVSS chain 2: DIQMTQSPSSLSASVGDRVTITCRSSQDISNFLNWYQQKPGKAPKLLIYYTSTLHSGVPSRFSGSGSGTDYTLTISSLQPEDFATYYCQQGNTASLDVRWRY |
| 7.1 | – | – | B9HL2G1 (antibody, V domains shown) VH: QVQLVQSGAEVKKPGASVKVSCKASGYTFSSYWIEWVKQAPGQGLEWIGEILPRSGNTNYNEKFKGKATFTADTSTSTAYMELSSLRSEDTAVYYCSSRGVRGSMDYWGQGTLVTVSS VL: DIQMTQSPSSLSASVGDRVTITCRSSQDISNFLNWYQQKPGKAPKLLIYYTSTLHSGVPSRFSGSGSGTDYTFTISSLQPEDIATYYCQQGNTLPWTFGGGT |
| – | 0.11 | 0.29 | murine B9 (antibody, V domains shown) VH: QVQLQQSGAELMKPGASVKISCKATGYTFSSYWIEWVKQRPGHGLEWIGEILPRSGNTNYNEKFKGKATFTAETSSNTAYMQLSSLTPEDSAVYYCSSRGVRGSMDYWGQGTSVTVSS VL: DIQMTQTTSSLSASLGDRVTITCRSSQDISNFLNWYQQKPDGTVKLLIYYTSTLHSGVPSRFSGSGSGTDYSLTISNLEQEDIATYFCQQGNTLPWTFGGGTNLEIKR |
